T1: recombinant human BCMA-his fusion protein (ACRO Biosystem, Cat. No. BCA-H522y) (human, UniProt Q02223 1-54)
T1 construct: extracellular domain; Bought protein; also called huBCMA-his; hu BCMA-his; not shown: His tag
T1 sequence (looked up): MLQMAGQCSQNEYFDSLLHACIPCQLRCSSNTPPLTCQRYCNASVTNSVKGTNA

B1: human-mouse chimeric antibody c-mAb3 (antibody, human IgG1, V domains shown)
VH: EVQLQQSGPELVKPGASVKILCKASGYTITDYNMDWVKRSHGKSLEWIGNINPHNGGSIYNQKFKGKATLTVDKSSSTAFMELRSLTSEDTAVYYCARGDATLVLDYWGQGTSLTVSS
VL: DIVLTQSPASLAVSLGQRATISCRASKSVSTSGLSYMHWYQQKPGQPPKVLIYLASNLESGVPARFSGSGSGTDFTLNIHPVEEEDAATYYCQHSRELPPTFGAGTKLELK
notes: not shown: human IgG1 heavy chain constant region, GenBank No. AK303185.1; human kappa light chain constant region, GenBank No. MG815648.1
B2: human-mouse chimeric antibody c-mAb2 (antibody, human IgG1, V domains shown)
VH: QVQLQQSDAELVKPGTSVKISCKVSGYTFTDHTIHWMKQRPEQGLEWIGYIYPRNGNTKYNEKFKGKATLTADKSSSTAYMHLNSLTSEDSAVYFCARYDYDGYFDVWGTGTTVTVSS
VL: DVVMTQTPLSLPVSLGDQASISCRSSQSHVHSDGHTYLHWYLQKPGQSPELLIYKVSNRFSGVPDRFSGSGSGTDFTLKISRVEAEDLGVYFCSQNTHFPWTFGGGTKLEIK
notes: as for B1

Legend:
[1] = target: T2, recombinant cynomolgus monkey cynoBCMA-his (ACRO Biosystem, Cat. No. BCA-052H7) (cynomolgus monkey, UniProt A0A2K5UD97 1-53); experiment: ELISA, coated antigen
T2 construct: extracellular domain; Bought protein; also called cynomolgus/rhesus macaque BCMA/TNFRSF17 protein; not shown: His tag
T2 sequence (A0A2K5UD97 entry or part of it): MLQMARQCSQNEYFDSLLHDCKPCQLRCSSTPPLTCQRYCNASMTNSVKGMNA
Summary of the method: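 Plates coated overnight at 4° C with 0.5 μg/mL His-tagged BCMA antigen (human or cynomolgus) in PBS pH 7.4, then blocked with 3% BSA. Humanized antibodies in 3-fold serial dilutions (11 points) were bound 1 h at room temperature. Detection used HRP anti-His antibody and TMB, read as OD450.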

[2] = target: T3, recombinant cynomolgus monkey BCMA-mFc (cynomolgus monkey; mouse); experiment: indirect ELISA, coated antigen
T3 construct: also called cynoBCMA-mFc
T3 sequence (chain, as listed by the source limits assumed): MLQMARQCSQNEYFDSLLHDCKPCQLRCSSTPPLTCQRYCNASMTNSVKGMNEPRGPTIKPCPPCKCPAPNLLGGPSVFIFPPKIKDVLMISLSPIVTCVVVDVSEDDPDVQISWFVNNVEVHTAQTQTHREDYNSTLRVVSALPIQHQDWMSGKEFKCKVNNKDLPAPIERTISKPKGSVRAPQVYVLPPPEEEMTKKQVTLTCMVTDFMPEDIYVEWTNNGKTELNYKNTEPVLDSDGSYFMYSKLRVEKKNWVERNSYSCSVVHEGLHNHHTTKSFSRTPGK
Description: Procedures: Human, mouse and monkey BCMA antigens were prepared into 0.5 μg/mL coating solutions with PBS buffer. The coating solutions were added to a microplate at 100 μL/well and incubated at 4° C. overnight. The residual coating solution was discarded before 3% BSA was added at 300 μL/well, and the plate was blocked for 3 h at room temperature. The microplate was washed once with PB ST (PBS containing 0.1% of TWEEN 20) at 300 μL/well. The human-mouse chimeric monoclonal antibodies were serially 3-fold diluted from 10 μg/mL to the 9th concentration. The dilutions were added to the microplate at 100 μL/well. After a 1-h incubation at room temperature, the microplate was washed thrice with PB ST at 300 μL/well. The mouse anti-human IgG Fc antibody [HRP] mAb was 25,000-fold diluted with 1% BSA-PBST and added at 100 μL/well. After another 1-h incubation at room temperature, the microplate was washed thrice with PBST at 300 μL/well and dried. The TMB chromogenic solution was added at 100 μL/well. After a 5-min reaction at room temperature, 2 M H₂SO₄ was added at 100 μL/well to terminate the reaction. The microplate was placed on a microplate reader (Molecular Devices, SPECTRA Max plus 384) and the absorbance OD450 value was read at 450 nm wavelength.

[3] = target: T4, cynomolgus monkey BCMA on HEK293 cynoBCMA cells (cynomolgus monkey, UniProt A0A2K5UD97 1-183); experiment: flow cytometry on HEK293 cynoBCMA cells
T4 construct: whole, on cells
T4 sequence (A0A2K5UD97 entry or part of it): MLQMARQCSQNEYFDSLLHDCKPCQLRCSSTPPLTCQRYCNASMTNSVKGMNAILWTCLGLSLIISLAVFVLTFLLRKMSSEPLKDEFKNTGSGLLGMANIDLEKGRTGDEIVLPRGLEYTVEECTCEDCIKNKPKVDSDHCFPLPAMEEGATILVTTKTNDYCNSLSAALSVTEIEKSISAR
Description: Procedures: Preparation of cell suspensions: The cells were resuspended in PBS, and the cell density was adjusted to 2×10⁵ cells/well. Mouse antibodies were added to a 96-well plate at […] and serially 3-fold diluted from 3000 nM. The plate was incubated for 1 h at 4° C. 150 μL of precooled PBS containing 1% of FBS was added into the 96-well plate after the co-incubation with the primary antibody was finished. The mixtures were centrifuged at 300×g for 5 min and the supernatants were discarded. The above procedures were repeated once. The fluorescent secondary antibody PE […] (Biolegend, 409304) was added at 80 μL/well. The plate was incubated at 4° C. for 30 min. 150 μL of precooled PBS containing 1% of FBS was added into the 96-well plate after the co-incubation with the secondary antibody was finished. The mixtures were uniformly mixed with a pipette. The 96-well plate was centrifuged at 300×g for 5 min in a plate centrifuge and the supernatants were removed. The above procedures were repeated once. The cells were resuspended in 100 μL of PBS containing 1% of FBS and detected on a flow cytometry (BD Accuri™ C6).

[4] = target: T2, recombinant cynomolgus monkey …; experiment: SPR (Biacore T200), anti-His capture on CM5, 1:1 fit
[5] = target: T2, recombinant cynomolgus monkey …; experiment: competitive ELISA, coated cynoBCMA-his, competitor 83A10-biotin
[6] = target: T1, recombinant human BCMA-his fusion …; experiment: competitive ELISA, coated huBCMA-his, competitor 83A10-biotin, antibody at 7 µg/mL

Binder | EC50 [1] | EC50 [2] | EC50 [3] | Kd [4] | koff [4] | kon [4] | IC50 [5] | competition [6]
B1 | 0.0248 nM | 0.723 nM | 2.66 nM | 0.106 nM | 0.000373 s⁻¹ | 3.54e+06 M⁻¹ s⁻¹ | 1.05 mg/L | –
B2 | – | – | – | – | – | – | – | 40%

Reference: patent publication US20240117061A1 (WUHAN YZY BIOPHARMA, published 2024)
